According to the supplement of paper PMC10598134:
± gives the standard deviation.

Experiment: collision cross section of modified peptide (TIMS, N2, iRT-aligned); higher = larger / more extended gas-phase ion
Experimental: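 1/K0 was aligned run-wise to spiked iRT peptides and converted to CCS in N2 (Mason-Schamp). Values are the mean of 1-3 technical replicates for the most abundant feature at each charge state.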

[1] = charge state: 3, modification: Dimethyl (K)
[2] = charge state: 3, modification: Methyl (K)
[3] = charge state: 2, modification: Succinyl
[4] = charge state: 3, modification: GlyGly (K)
[5] = charge state: 2, modification: Phospho (Y)
[6] = charge state: 2, modification: Butyryl
[7] = charge state: 2, modification: GlyGly (K)
[8] = charge state: 2, modification: hydroxyisobutyryl
[9] = charge state: 3, modification: hydroxyisobutyryl
[10] = charge state: 3, modification: Biotin
[11] = charge state: 3, modification: Succinyl
[12] = charge state: 2, modification: Malonyl
[13] = charge state: 3, modification: Malonyl
[14] = charge state: 2, modification: Methyl (K)
[15] = charge state: 2, modification: Methyl (R)
[16] = charge state: 3, modification: Methyl (R)
[17] = charge state: 2, modification: Nitro (Y)
[18] = charge state: 2, modification: Glutarylation
[19] = charge state: 3, modification: Glutarylation
[20] = charge state: 3, modification: Crotonyl
[21] = charge state: 2, modification: Biotin
[22] = charge state: 2, modification: Crotonyl
[23] = charge state: 2, modification: Hydroxyproline
[24] = charge state: 2, modification: Formyl
[25] = charge state: 3, modification: Phospho (Y)

With “ANLEKAQAELVGTADEATR [_ANLEK(Dimethyl (K))AQAELVGTADEATR_]” the collision cross section [1] was 525.41 ± 0.76 Å².

Work on “GSLGAQKLANTCFNEIEK [_GSLGAQK(Methyl (K))LANTCFNEIEK_]” yielded a collision cross section [2] of 509.24 Å².

“PGGEGPQCEKTTDVK [_PGGEGPQCEK(Succinyl)TTDVK_]” gave a collision cross section [3] of 437.41 ± 1.1 Å².

Work on “IHNAENIQPGEQKYEYK [_IHNAENIQPGEQK(GlyGly (K))YEYK_]” yielded a collision cross section [4] of 529.6 ± 1.2 Å².

GAEKTEVAEPR [_GAEK(Acetyl (K))TEVAEPR_] gave a collision cross section (charge state: 2, modification: Acetyl (K)) of 370.22 ± 7.6 Å².

YEATSVQQK [_Y(Phospho (Y))EATSVQQK_] gave a collision cross section [5] of 348.75 ± 0.066 Å².

Work on LEKTIDDLEEK [_LEK(Butyryl)TIDDLEEK_] yielded a collision cross section [6] of 409.44 ± 0.57 Å².

With LQLEIDQKK [_LQLEIDQK(GlyGly (K))K_] the collision cross section [7] was 376.75 ± 0.46 Å² and the collision cross section [4] was 433 ± 2.7 Å².

With “VSPASSVDSNIPSSQGYKK [_VSPASSVDSNIPSSQGYK(hydroxyisobutyryl)K_]” the collision cross section [8] was 468.85 ± 0.27 Å² and the collision cross section [9] was 562.43 ± 0.42 Å².

With DHLSDKESK [_DHLSDK(GlyGly (K))ESK_] the collision cross section [7] was 353.15 ± 0.53 Å² and the collision cross section [4] was 411.26 Å².

With SKHLQEQLNELK [_SK(Biotin)HLQEQLNELK_] the collision cross section [10] was 520.89 Å².

“TTGFYSGFSEVAEKR [_TTGFYSGFSEVAEK(Trimethyl (K))R_]” gave a collision cross section (charge state: 2, modification: Trimethyl (K)) of 459.26 Å² and a collision cross section (charge state: 3, modification: Trimethyl (K)) of 508.85 ± 1.6 Å².

For “SGKFTQQDIDEAK [_SGK(hydroxyisobutyryl)FTQQDIDEAK_]”, the collision cross section [8] was 423.01 ± 2.3 Å².

“TTGFYSGFSEVAEKR [_TTGFYSGFSEVAEK(Succinyl)R_]” showed a collision cross section [3] of 441.9 ± 0.5 Å² and a collision cross section [11] of 512.39 ± 1.6 Å².

“VDIDAPDVSIEGPDAKLK [_VDIDAPDVSIEGPDAK(Dimethyl (K))LK_]” showed a collision cross section (charge state: 2, modification: Dimethyl (K)) of 457.63 ± 1.8 Å² and a collision cross section [1] of 550.49 ± 0.63 Å².

In the case of ITLSKHQNVQLPR [_ITLSK(Biotin)HQNVQLPR_], the collision cross section [10] is reported as 502.67 Å².

For “SKHLQEQLNELK [_SK(GlyGly (K))HLQEQLNELK_]”, the collision cross section [7] was 420.45 ± 1.4 Å² and the collision cross section [4] was 495.28 ± 2 Å².

HVSPVTPPR [_HVSPVT(HexNAc (ST))PPR_] gave a collision cross section (charge state: 2, modification: HexNAc (ST)) of 366.95 ± 0.8 Å².

Sequence “GGGGGRGGLHDFR [_GGGGGR(Citrullination (R))GGLHDFR_]” has a collision cross section (charge state: 2, modification: Citrullination (R)) of 380.63 ± 2.7 Å² and a collision cross section (charge state: 3, modification: Citrullination (R)) of 438.48 ± 1.8 Å².

Sequence “SPSDSGYSYETIGKTTK [_SPSDSGYSYETIGK(Malonyl)TTK_]” has a collision cross section [12] of 450.66 ± 0.58 Å² and a collision cross section [13] of 526.41 Å².

Sequence TPNLYIYSKK [_TPNLYIYSK(Methyl (K))K_] has a collision cross section [14] of 377.12 ± 0.28 Å² and a collision cross section [2] of 428.93 ± 5.2 Å².

Sequence RLPNVHGR [_R(Methyl (R))LPNVHGR_] has a collision cross section [15] of 332.28 ± 1.8 Å² and a collision cross section [16] of 421.48 ± 3.9 Å².

With “SPASDTYIVFGEAK [_SPASDTY(Nitro (Y))IVFGEAK_]” the collision cross section [17] was 402.5 ± 0.55 Å² and the collision cross section (charge state: 3, modification: Nitro (Y)) was 486.92 Å².

“DASTLQSQKAEGTGDAK [_DASTLQSQK(Malonyl)AEGTGDAK_]” showed a collision cross section [12] of 438.73 ± 1.8 Å² and a collision cross section [13] of 490.61 ± 1.6 Å².

“TQAYQDQKPGTSGLR [_TQAYQDQK(Gluratylation)PGTSGLR_]” showed a collision cross section [18] of 436.36 ± 1.1 Å² and a collision cross section [19] of 483.65 ± 1 Å².

Work on “FSHSVQNSERGK [_FSHSVQNSER(Methyl (R))GK_]” yielded a collision cross section [15] of 405.91 ± 1.3 Å² and a collision cross section [16] of 465.06 ± 2.1 Å².

“TFGKAAGPSLSHTSGGTQSK [_TFGK(Crotonyl)AAGPSLSHTSGGTQSK_]” gave a collision cross section [20] of 515.47 ± 1.3 Å².

Sequence “SKHLQEQLNELK [_SK(hydroxyisobutyryl)HLQEQLNELK_]” has a collision cross section [8] of 425.52 ± 0.81 Å² and a collision cross section [9] of 492.58 ± 2.1 Å².

Sequence “VQGGALEDSQLVAGVAFKK [_VQGGALEDSQLVAGVAFK(Succinyl)K_]” has a collision cross section [3] of 480.13 ± 1.2 Å².

Sequence “PASGAGAGAGAGKR [_PASGAGAGAGAGK(Biotin)R_]” has a collision cross section [21] of 377.47 Å² and a collision cross section [10] of 490.64 Å².

ILDLKTGTVK [_ILDLK(Crotonyl)TGTVK_] gave a collision cross section [22] of 360.69 ± 0.88 Å².

For SLEEEGAAHSGKR [_SLEEEGAAHSGK(Biotin)R_], the collision cross section [21] was 428.85 Å² and the collision cross section [10] was 493.19 Å².

Work on SSFAYKDQNENR [_SSFAYK(Butyryl)DQNENR_] yielded a collision cross section [6] of 402.63 ± 0.85 Å² and a collision cross section (charge state: 3, modification: Butyryl) of 462.59 ± 3.8 Å².

“SGKFTQQDIDEAK [_SGK(Gluratylation)FTQQDIDEAK_]” showed a collision cross section [18] of 415.95 ± 0.14 Å².

For PSVSTKLISK [_PSVSTK(Butyryl)LISK_], the collision cross section [6] was 357.77 ± 1.8 Å².

Sequence “GEQGEPGAPGIR [_GEQGEP(Hydroxyproline)GAPGIR_]” has a collision cross section [23] of 349.07 ± 0.25 Å².

LTSLNVKYNNDK [_LTSLNVK(Formyl)YNNDK_] gave a collision cross section [24] of 404.27 ± 0.2 Å².

For FHYQDQEFLK [_FHY(Phospho (Y))QDQEFLK_], the collision cross section [5] was 397.81 ± 0.64 Å² and the collision cross section [25] was 447.23 ± 0.12 Å².

“SGNLTEDDKHNNAK [_SGNLTEDDK(Crotonyl)HNNAK_]” gave a collision cross section [22] of 426.1 Å² and a collision cross section [20] of 469.87 ± 1.6 Å².

Sequence “DTGEKLTVAENEAETK [_DTGEK(Methyl (K))LTVAENEAETK_]” has a collision cross section [14] of 429.8 ± 2.5 Å² and a collision cross section [2] of 482 ± 3.4 Å².

LLEQKTQESQK [_LLEQK(Biotin)TQESQK_] showed a collision cross section [21] of 419.49 ± 1.1 Å².

With YILIPASQQPK [_Y(Nitro (Y))ILIPASQQPK_] the collision cross section [17] was 382.12 ± 0.17 Å².

LGNDFHTNKR [_LGNDFHTNK(Succinyl)R_] gave a collision cross section [3] of 377.52 ± 0.24 Å² and a collision cross section [11] of 436.15 ± 2.9 Å².

“ITLSKHQNVQLPR [_ITLSK(Gluratylation)HQNVQLPR_]” showed a collision cross section [18] of 422.98 ± 0.48 Å² and a collision cross section [19] of 526.02 ± 27 Å².

For “GGPGAPGAPGPKGESGDYK [_GGP(Hydroxyproline)GAPGAPGPKGESGDYK_]”, the collision cross section [23] was 431.65 ± 0.34 Å² and the collision cross section (charge state: 3, modification: Hydroxyproline) was 482.83 ± 2.3 Å².

For “DTPTSAGPNSFNKGK [_DTPTSAGPNSFNK(Malonyl)GK_]”, the collision cross section [12] was 408.63 ± 0.58 Å².

LDEKENLSAK [_LDEK(GlyGly (K))ENLSAK_] showed a collision cross section [7] of 379.07 ± 1.5 Å² and a collision cross section [4] of 437.31 ± 1.9 Å².

“TVSKVDDFLANEAK [_TVSK(Succinyl)VDDFLANEAK_]” showed a collision cross section [3] of 425.01 ± 0.52 Å².

In the case of “SSGPGGQNVNKVNSK [_SSGPGGQNVNK(GlyGly (K))VNSK_]”, the collision cross section [7] is reported as 407.13 ± 1.4 Å² and the collision cross section [4] is reported as 459.52 ± 3 Å².

In the case of ASEALLKQLK [_ASEALLK(Biotin)QLK_], the collision cross section [21] is reported as 396.36 ± 2.2 Å².

With “LDHLAEKFR [_LDHLAEK(hydroxyisobutyryl)FR_]” the collision cross section [8] was 375.94 ± 0.8 Å² and the collision cross section [9] was 444.1 ± 2 Å².

With “TTGFYSGFSEVAEKR [_TTGFYSGFSEVAEK(Formyl)R_]” the collision cross section [24] was 430.24 ± 0.79 Å².

GAEKTEVAEPR [_GAEK(Methyl (K))TEVAEPR_] gave a collision cross section [14] of 369.74 ± 0.22 Å² and a collision cross section [2] of 441.71 ± 4.3 Å².

With “SSGPGGQNVNKVNSK [_SSGPGGQNVNK(Gluratylation)VNSK_]” the collision cross section [18] was 409.46 ± 0.95 Å² and the collision cross section [19] was 446.64 ± 1.9 Å².

With “GPQNATDSYVHK [_GPQNATDSY(Phospho (Y))VHK_]” the collision cross section [5] was 396.29 ± 0.77 Å² and the collision cross section [25] was 452.94 ± 1.8 Å².
